The series deals with Factor X, P00742.
Factor X, P00742, sequence (P00742 whole entry, looked up): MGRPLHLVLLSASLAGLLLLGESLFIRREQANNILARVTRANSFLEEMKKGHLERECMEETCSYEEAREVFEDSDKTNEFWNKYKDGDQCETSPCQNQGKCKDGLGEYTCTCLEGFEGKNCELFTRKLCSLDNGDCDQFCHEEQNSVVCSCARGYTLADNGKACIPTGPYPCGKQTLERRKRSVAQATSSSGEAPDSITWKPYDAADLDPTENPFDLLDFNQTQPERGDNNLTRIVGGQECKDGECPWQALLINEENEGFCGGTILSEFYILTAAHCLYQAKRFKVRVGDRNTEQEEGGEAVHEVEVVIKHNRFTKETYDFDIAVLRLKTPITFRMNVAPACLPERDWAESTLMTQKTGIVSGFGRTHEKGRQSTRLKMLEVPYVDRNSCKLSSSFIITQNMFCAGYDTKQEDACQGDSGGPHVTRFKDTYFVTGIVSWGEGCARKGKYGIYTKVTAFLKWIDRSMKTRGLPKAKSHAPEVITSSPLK

B1: FIXa-K228N/I251S/R318Y/R338E/R403E/E410N (protein)
chain 1: not shown
chain 2: not shown
Consider B1, for which the kcat/KM was found to be 2.1e+08 M⁻¹ s⁻¹.

B2: FIXa R318Y/R338E/E410N (mature FIX numbering) (protein)
chain 1: not shown
chain 2: not shown
On to B2, for which the “% of WT kcat/KM” value came to 770%.

B3: FIXa-Y155F/K247N/N249S/R338E/T343R (protein)
chain 1: not shown
chain 2: not shown
B3: the KM was found to be 0.0153 µM.

B4: FIXa-Y155F/K228N/I251S/R318Y/R338E/R403E/E410N (protein)
chain 1: not shown
chain 2: not shown
As for B4, the kcat/KM amounted to 1.4e+08 M⁻¹ s⁻¹.

B5: FIXa Y155F/K247N/N249S/R338E/T343R (protein)
chain 1: not shown
chain 2: not shown
Regarding B5, the “% of WT kcat/KM” value was 1579% and the kcat/KM came to 7.3e+08 M⁻¹ s⁻¹.

B6: FIXa Y155F/K247N/N249S/R338E/R403E (protein)
chain 1: not shown
chain 2: not shown
For the protein B6, the “% of WT kcat/KM” value stood at 299% and the specificity constant (kcat/KM) worked out at 1.4e+08 M⁻¹ s⁻¹.

B7: FIXa-Y155F/K247N/N249S/R318Y/R338E/T343R/E410N (protein)
chain 1: not shown
chain 2: not shown
In the case of B7, the KM was found to be 0.0177 µM.

B8: FIXa-Y155F/K247N/N249S/R338E/R403E (protein)
chain 1: not shown
chain 2: not shown
As for B8, the KM is 0.0409 µM.

B9: FIXa-N260S/R318Y/R338E/T343R/R403E/E410N (protein)
chain 1: not shown
chain 2: not shown
In the case of B9, the specificity constant (kcat/KM) is 2.9e+08 M⁻¹ s⁻¹.

B10: FIXa-Y155F/K247N/N249S/R318Y/R338E/T343R/R403E/E410N (protein)
chain 1: not shown
chain 2: not shown
For B10, the kcat/KM came to 4e+08 M⁻¹ s⁻¹.

B11: FIXa-Y155F/R338E/T343R/R403E/E410N (protein)
chain 1: not shown
chain 2: not shown
For the protein B11, the catalytic efficiency (kcat/KM) worked out at 2.4e+08 M⁻¹ s⁻¹.

B12: FIXa-R318Y/T343R/R403E/E410N (protein)
chain 1: not shown
chain 2: not shown
On to B12, for which the kcat/KM amounted to 5.8e+07 M⁻¹ s⁻¹.

B13: FIXa-Y155F/K247N/N249S/N260S/R318Y/R338E/R403E/E410N (protein)
chain 1: not shown
chain 2: not shown
Turning to B13, the kcat/KM was 5.7e+07 M⁻¹ s⁻¹.

B14: FIXa K228N/R338E/R403E (mature FIX numbering) (protein)
chain 1: not shown
chain 2: not shown
Consider B14, for which the “% of WT kcat/KM” value worked out at 108%.

Broadly, the kcat/KM is the turnover number divided by the Michaelis constant. By KM is commonly meant the substrate concentration at which the rate is half of its maximum.
